# Laboratory results from the Human Domainome abundance scans (Beltran et al. 2025).
# ± gives the uncertainty stated by the source.
# B1: Homeobox protein cut-like 1, residues 941 to 1008; numbered along this chain, P39880 (parent)
# chain: QEVDTIELTRQVKEKLAKNGICQRIFGEKVLGLSQGSVSDMLSRPKPWSKLTQKGREPFIRMQLWLNG
# Variants of: B1
# Assay: abundance fitness (aPCA) (normalised: wild type 0, dead -1); higher = more abundant; growth selection in yeast, the domain comes from the species named
# Conditions: Homo sapiens
row,Variant,abundance fitness
1,QEVDTIELTRQVKEKLAKNGICQRIFGEKVLGLSQGSVSDMLKRPKPWSKLTQKGREPFIRMQLWLNG [S43K],-0.028 ± 0.088
2,QEVDTIELTRQVKEKLAKNGICQRIFGEKVLGLSQGSVSDMLLRPKPWSKLTQKGREPFIRMQLWLNG [S43L],-0.139 ± 0.048
3,QEVDTIELTRQVYEKLAKNGICQRIFGEKVLGLSQGSVSDMLSRPKPWSKLTQKGREPFIRMQLWLNG [K13Y],-0.475 ± 0.11
4,QEVDTIELTRQVFEKLAKNGICQRIFGEKVLGLSQGSVSDMLSRPKPWSKLTQKGREPFIRMQLWLNG [K13F],-0.768 ± 0.079
5,QEVDTIELTRQVKEKLAKNGICQRIFGEKVLGLSQGSVSDMLSRPKPWSKLTHKGREPFIRMQLWLNG [Q53H],-0.179 ± 0.11
6,QEVDTIELTRQVKEKLAKNGICQRIFGEKVLGLSQGSVSDMLSRPKPWSKLTNKGREPFIRMQLWLNG [Q53N],-0.045 ± 0.15
7,QEVDTIELTRQVKEKLAKNGICVRIFGEKVLGLSQGSVSDMLSRPKPWSKLTQKGREPFIRMQLWLNG [Q23V],-0.321 ± 0.069
8,QEVDTIELTRQVKEKLAKNGICQRIVGEKVLGLSQGSVSDMLSRPKPWSKLTQKGREPFIRMQLWLNG [F26V],-0.648 ± 0.061
9,QEVDTIELTRQVKEKLAKNGICQRIFGEKVLGLSQGSVSDMLSPPKPWSKLTQKGREPFIRMQLWLNG [R44P],-0.314 ± 0.072
10,QEVDTIELTRQVKEKLAKNGICQRIFGEKVLGLSQGSVSDSLSRPKPWSKLTQKGREPFIRMQLWLNG [M41S],-0.263 ± 0.062
11,QEVDTIELTRQVKEKLAKNGICQRIFGEKVLGLSQGSVSDLLSRPKPWSKLTQKGREPFIRMQLWLNG [M41L],0.027 ± 0.048
12,QEVDTIELTRQVKEKLAFNGICQRIFGEKVLGLSQGSVSDMLSRPKPWSKLTQKGREPFIRMQLWLNG [K18F],-0.287 ± 0.089
13,QEVDTIELTRQVKEKLAKWGICQRIFGEKVLGLSQGSVSDMLSRPKPWSKLTQKGREPFIRMQLWLNG [N19W],-0.234 ± 0.082
14,QEVDTIELTRQVKEKLAKNGICQRIFGEKVLGLSQGSVSDMLSRPKPWSKLTQNGREPFIRMQLWLNG [K54N],-0.319 ± 0.11
15,QEVDTIELTRQVKEKLAKNGIPQRIFGEKVLGLSQGSVSDMLSRPKPWSKLTQKGREPFIRMQLWLNG [C22P],-0.069 ± 0.077
16,QEVDTIELTRQVKEKLAKNGIYQRIFGEKVLGLSQGSVSDMLSRPKPWSKLTQKGREPFIRMQLWLNG [C22Y],-0.28 ± 0.094
17,QEVDTIELTRQVKEKLAKNGICQRIFGEKVLGLSQGSVSDMLSRPKPWSKLTQKGREPFIRMQLQLNG [W65Q],-1.24 ± 0.21
18,QEVDTIELTRQVKEKLAKNGICQRIFGEKVLGLSQGSVSDMLSRPKPWSKLTQKGREPFIRHQLWLNG [M62H],-1.33 ± 0.4
19,QEVDTIELTRQVKEKLAKNGICQRIFGEKVLGLSQGSVSDMLSRPKPWSKLTQKGREPFIRNQLWLNG [M62N],-1.08 ± 0.22
20,QEVDTIELTRQVKEKLAKNGICQRIFGEKVLGLSQGSVSDMNSRPKPWSKLTQKGREPFIRMQLWLNG [L42N],-0.405 ± 0.077

row,Variant,abundance fitness
1,QEVDTIELTRQVKEKLAKNGICQRPFGEKVLGLSQGSVSDMLSRPKPWSKLTQKGREPFIRMQLWLNG [I25P],-0.578 ± 0.092
2,QEVDTIELTRQVKEKLAKNGICQRGFGEKVLGLSQGSVSDMLSRPKPWSKLTQKGREPFIRMQLWLNG [I25G],-0.225 ± 0.049
3,QEGDTIELTRQVKEKLAKNGICQRIFGEKVLGLSQGSVSDMLSRPKPWSKLTQKGREPFIRMQLWLNG [V3G],-0.154 ± 0.058
4,QEVDTIELTRQVKEKLAKNGICQRIFGEKVLGLSQGSVSDMLSRPKPWSKLTQKGREPFIRMQLWANG [L66A],-0.62 ± 0.089
5,QEVDTIELTRQVKEKLAKNGICQRIFGEKVLGLSQGSVSDMLSRPKPWSKLTQKGVEPFIRMQLWLNG [R56V],-0.39 ± 0.062
6,QEVDTIELTRQVKEKLAKNGICQRIFGEKVLGLSQGSVSDMLSRPKPWSKLTQKGIEPFIRMQLWLNG [R56I],-0.6 ± 0.091
7,QEVDTIELERQVKEKLAKNGICQRIFGEKVLGLSQGSVSDMLSRPKPWSKLTQKGREPFIRMQLWLNG [T9E],-0.191 ± 0.089
8,QEVDTIELTRQVKEKLAKNGICQRIFGEKVLGLSQGSVSDMLSRPKPWDKLTQKGREPFIRMQLWLNG [S49D],-0.241 ± 0.096
9,QEVDTIELTRQVKEKLAKNGICQRIFGEKVLGLSQGSVSDMLSRPKPWAKLTQKGREPFIRMQLWLNG [S49A],-0.072 ± 0.074
10,QEVDTIELTRQVKEKLAKNGICQRIFGEKVLGLSQGSVSDMLSRPKPWSKLTQKGRKPFIRMQLWLNG [E57K],-0.091 ± 0.078
11,QEVDTIELTRQVKEKLAKNGICQRIFGEKVLGLSQGSVSDMLSRPKPWSKLTQKGRQPFIRMQLWLNG [E57Q],-0.147 ± 0.082
12,QEVDTIELTRQVKEKLAKNGICQRIFGEKVLGLSQGSVSDMLSRPKPWSKLTQKGRSPFIRMQLWLNG [E57S],-0.192 ± 0.058
13,QEVDTIELTRQVKEKLAKNGICQRIFGEKVLGLSQGSVSDMLSRPKPWSKLTQKGRHPFIRMQLWLNG [E57H],-0.213 ± 0.12
14,QEVDTIELTRQVKEKLAKNGICQRIFGEKVLGLVQGSVSDMLSRPKPWSKLTQKGREPFIRMQLWLNG [S34V],-0.137 ± 0.059
15,QEVDTIELTRQVKEKLAKNGICQRIFGEKVLGLTQGSVSDMLSRPKPWSKLTQKGREPFIRMQLWLNG [S34T],-0.196 ± 0.12
16,QEVDTIELTRQVKEKLAKNGICQRIFGEKVLGLSQGSVSDMLSRPKPWSKLTQKGREPFIRMILWLNG [Q63I],-0.2 ± 0.099
17,QEVDTIELTRQVKEKLAKNGICQRIFGEKVLGLSFGSVSDMLSRPKPWSKLTQKGREPFIRMQLWLNG [Q35F],0.044 ± 0.13
18,QEVDTIELTRQVKEKLAKNGICQRIFGEKVLGLSQGSVSDMLSRPKPWSKLTQKGRERFIRMQLWLNG [P58R],-0.049 ± 0.054
19,QEVDTIELTRQVKEKLAKNGICQRIFGEKVLGLSQGSVSDMLSRPKPWSKLTQKGRESFIRMQLWLNG [P58S],-0.093 ± 0.063
20,QEVDTIELTRQVKEKLAKNGICQRIFGEKVLGLSQGSVSDMLSRPKPWSKLTQKGREAFIRMQLWLNG [P58A],-0.102 ± 0.072
